Test results: patent US20230055566A1 (DIZAL JIANGSU PHARMACEUTICAL, published 2023)
Substitutions are numbered along the chain they refer to. Numbers in names are those of the source.

What was measured:
cyno FGFR2b-Fc = biological target: T1, cyno FGFR2b-Fc (Cynomolgus monkey); experiment: ELISA, plate coated with cyno FGFR2b-Fc, anti-human IgG HRP
T1 construct: also called recombinant cyno FGFR2b-Fc; cynomolgus FGFR2b
Procedure: (§1) The cross-species binding of Ab 21c to recombinant cyno, rat/mouse, and human FGFR2b-Fc fusion proteins was conducted with ELISA. In brief, 96-well ELISA plate were coated with about 100 μl/well 0.1 μg/ml recombinant human FGFR2b-Fc, recombinant rat/mouse FGFR2b-Fc, or recombinant cyno FGFR2b-Fc protein in PBS overnight. Then the plate was blocked with 2% BSA in PBS with 0.05% Tween20 and incubation with antibody samples for 60 min at room temperature, and then washed twice in 1×TBST (Cell Signaling Technology, #9997) and followed by incubation with anti-human lgG HRP (Horseradish peroxidase) conjugate for 60 min at a room temperature. HRP activity was detected with tetra-methylbenzidine substrate (Cell Signaling Technology, #7004) and the reaction was stopped with stop solution (Cell Signaling Technology, #7002). The plate was read at 450 nm. […] Ab 21c has the highest binding affinity to rat/mouse FGFR2b, followed by human FGFR2b, and then cyno FGFR2b.

[1] = biological target: T2, recombinant human FGFR1b-Fc (human, UniProt P11362-19 22-376); experiment: SPR (Biacore T200), hFGFR1b-Fc amine-coupled on CM5 chip, antibody as analyte
T2 construct: Bought from R&D Systems; also called hFGFR1b-Fc; not shown: human Fc
T2 sequence (looked up): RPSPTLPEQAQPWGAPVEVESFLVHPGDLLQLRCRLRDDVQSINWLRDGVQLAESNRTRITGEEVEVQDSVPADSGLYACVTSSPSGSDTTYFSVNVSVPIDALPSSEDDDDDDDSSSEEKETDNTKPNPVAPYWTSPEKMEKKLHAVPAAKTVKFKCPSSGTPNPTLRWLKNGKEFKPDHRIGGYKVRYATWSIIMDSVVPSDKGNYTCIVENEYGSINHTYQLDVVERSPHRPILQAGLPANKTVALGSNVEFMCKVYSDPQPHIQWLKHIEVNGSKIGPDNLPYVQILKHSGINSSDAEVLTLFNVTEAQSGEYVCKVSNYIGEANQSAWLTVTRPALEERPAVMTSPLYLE
Procedure: (§2) The binding of antibodies to human FGFR2b or human FGFR1b antigen was determined by surface plasmon resonance (Biacore). Briefly, CM5 sensor chip (GE Healthcare Life Sciences) was firstly activated by a 4 min injection of 1:1 freshly mixture of 50 mM N-hydroxysuccinamide (NHS): 200 mM […]. Then hFGFR2b-Fc or hFGFR1b-Fc was immobilized to activated CM5 sensor chip using Amine Coupling Kit (GE Healthcare Life Sciences) and 1M ethanolamine as the blocking reagent. About 20-30 response units (RU, 1 RU represents the binding of 1 pg of protein per square mm) of antigen protein were captured.
(§3) The association constant, dissociation constant were calculated with Biacore T200 evaluation software (version 1.0). […] In addition, Ab 21c is distinguished from the antibody FPA144 in terms of FGFR1b binding.

[2] = biological target: T3, recombinant rat/mouse FGFR2b-Fc (rat); experiment: ELISA, plate coated with rat/mouse FGFR2b-Fc, anti-human IgG HRP
T3 construct: also called rat FGFR2b fused with murine Fc
Procedure: as §1

[3] = biological target: T2, recombinant human FGFR1b-Fc; experiment: SPR (Biacore), hFGFR1b-Fc immobilized on CM5 chip, antibody injected at 0-200 nM
Procedure: as §2, §3

FGFR4-Fc [4] = biological target: T4, FGFR4-Fc (human, UniProt P22455 22-369); experiment: ELISA, plate coated with HuFGFR4
T4 construct: Bought from R&D Systems; not shown: human Fc
T4 sequence (looked up): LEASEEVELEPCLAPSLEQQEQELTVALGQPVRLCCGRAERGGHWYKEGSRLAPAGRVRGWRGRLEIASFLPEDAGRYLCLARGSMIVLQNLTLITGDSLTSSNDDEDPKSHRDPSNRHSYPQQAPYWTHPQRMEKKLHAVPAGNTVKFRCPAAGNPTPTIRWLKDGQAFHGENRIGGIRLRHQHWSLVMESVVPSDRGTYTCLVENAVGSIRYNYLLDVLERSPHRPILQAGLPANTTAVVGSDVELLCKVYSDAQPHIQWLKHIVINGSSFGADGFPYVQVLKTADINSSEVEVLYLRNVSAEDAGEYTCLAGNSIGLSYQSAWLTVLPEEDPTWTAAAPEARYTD

FGFR3b-Fc [5] = biological target: T5, FGFR3b-Fc (human, UniProt P22607-2 23-377); experiment: ELISA, plate coated with HuFGFR3b
T5 construct: Bought from R&D Systems; the IIIb form is an isoform of it; not shown: human Fc
T5 sequence (looked up): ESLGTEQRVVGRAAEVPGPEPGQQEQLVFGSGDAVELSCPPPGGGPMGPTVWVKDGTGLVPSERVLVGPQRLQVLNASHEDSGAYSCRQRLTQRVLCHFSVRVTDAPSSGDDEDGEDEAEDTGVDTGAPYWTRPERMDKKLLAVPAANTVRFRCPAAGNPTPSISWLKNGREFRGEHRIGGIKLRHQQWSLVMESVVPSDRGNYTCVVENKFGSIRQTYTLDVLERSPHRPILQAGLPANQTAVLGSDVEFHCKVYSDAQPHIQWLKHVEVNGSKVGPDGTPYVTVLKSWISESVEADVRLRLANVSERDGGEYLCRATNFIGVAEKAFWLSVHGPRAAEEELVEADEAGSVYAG

FGFR3b-Fc [6] = biological target: T5, FGFR3b-Fc; experiment: ELISA on FGFR family Fc fusion proteins
FGFR4-Fc [7] = biological target: T4, FGFR4-Fc; experiment: ELISA on FGFR family Fc fusion proteins

B1: Ab 21c (antibody, V domains shown)
VH: EVQLHQSGTVLARPGASVKMSCKTSGYTFTNYWMHWIKQRPGQGLEWIGAIYPENGDINYNQKFKGKAKLTAVTSASTAYMDLSSLTNEDSAVYYCTSRGDYWGQGTTLTVSS
VL: QIVLTQSPAIMSASPGEKVTMTCSASSGLSYMSWYQQKPGSSPRLLIYDTSNLASGVPVRFSGSGSGTSYSLTISRMEAEDAATYYCQQWSSYPYTFGGGTKLEIK
notes: Chimeric antibody: mouse VH and VL fused to human heavy and light chain constant regions; also called chimeric Ab 21c
EC50 (read off the curve) (cyno FGFR2b-Fc): ~0.6 nM
Kd [1]: 3.69 nM
EC50 (read off the curve) [2]: ~0.2 nM
koff [3]: 0.000235 s⁻¹
kon [3]: 63800 M⁻¹ s⁻¹

B2: Ab 21 (antibody, V domains shown)
VH: B1 VH
VL: B1 VL
notes: Mouse monoclonal antibody from a hybridoma; also called mouse Ab 21
binding result (FGFR4-Fc [4]): no binding (tested: about 10^-7.3 M (about 5e-8 M))
binding result (FGFR3b-Fc [5]): no binding (tested: about 10^-7.3 M (about 5e-8 M))

B3: Ab hu21-21 (antibody, V domains shown)
VH: EVQLVQSGAEVKKPGASVKVSCKASGYTFTNYWMHWVRQAPGQGLEWMGAIYPENGDINYNQKFKGRVTLTRDTSISTAYMELSRLRSDDTAVYYCTSRGDYWGQGTTVTVSS
VL: AIQLTQSPSSLSASVGDRVTITCSASSGLSYMSWYQQKPGKAPKLLIYDTSNLASGVPSRFSGSGSGTDFTLTISSLQPEDFATYYCQQWSSYPYTFGQGTKLEIK
notes: Humanized antibody based on Ab 21
binding result (FGFR3b-Fc [6]): no binding
binding result (FGFR4-Fc [7]): no binding

B4: Ab hu21-26 (antibody, human IgG1, V domains shown)
VH: B3 VH with G56R
VL: B3 VL
notes: Humanized antibody with human IgG1; The VH equals that of hu21-21 except for G56R; also called afhu21-26 (afucosylated version)
binding result (FGFR3b-Fc [6]): no binding
binding result (FGFR4-Fc [7]): no binding
